Reference: publication PMC2753297
Positions count from the first letter of the chain named. In names and notes the source's numbering stands.

T1: ADAM10 (immunoprecipitated with anti-ADAM10 from HEK293T cells), O14672
T1 chain: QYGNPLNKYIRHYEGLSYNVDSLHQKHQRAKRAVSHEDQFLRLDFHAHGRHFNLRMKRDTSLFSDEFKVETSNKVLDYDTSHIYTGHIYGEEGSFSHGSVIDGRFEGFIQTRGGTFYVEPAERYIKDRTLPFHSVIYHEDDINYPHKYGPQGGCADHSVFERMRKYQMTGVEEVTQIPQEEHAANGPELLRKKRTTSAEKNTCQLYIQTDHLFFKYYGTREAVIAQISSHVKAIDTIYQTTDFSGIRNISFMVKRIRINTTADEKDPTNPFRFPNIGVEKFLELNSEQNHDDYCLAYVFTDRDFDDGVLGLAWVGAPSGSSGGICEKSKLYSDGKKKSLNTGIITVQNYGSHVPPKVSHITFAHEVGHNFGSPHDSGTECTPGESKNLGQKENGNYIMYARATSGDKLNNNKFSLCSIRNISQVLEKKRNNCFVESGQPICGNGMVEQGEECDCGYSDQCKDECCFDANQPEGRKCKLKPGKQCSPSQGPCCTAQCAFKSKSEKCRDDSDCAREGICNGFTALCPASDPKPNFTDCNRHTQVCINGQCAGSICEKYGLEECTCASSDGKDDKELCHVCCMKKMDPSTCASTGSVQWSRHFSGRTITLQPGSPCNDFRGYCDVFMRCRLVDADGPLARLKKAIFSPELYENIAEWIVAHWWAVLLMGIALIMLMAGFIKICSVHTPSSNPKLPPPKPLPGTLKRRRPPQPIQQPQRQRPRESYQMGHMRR

B1: Wt EphA3-GFP, P29320 Y596E; Y602E; K653M (protein)
chain: ELIPQPSNEVNLLDSKTIQGELGWISYPSHGWEEISGVDEHYTPIRTYQVCNVMDHSQNNWLRTNWVPRNSAQKIYVELKFTLRDCNSIPLVLGTCKETFNLYYMESDDDHGVKFREHQFTKIDTIAADESFTQMDLGDRILKLNTEIREVGPVNKKGFYLAFQDVGACVALVSVRVYFKKCPFTVKNLAMFPDTVPMDSQSLVEVRGSCVNNSKEEDPPRMYCSTEGEWLVPIGKCSCNAGYEERGFMCQACRPGFYKALDGNMKCAKCPPHSSTQEDGSMNCRCENNYFRADKDPPSMACTRPPSSPRNVISNINETSVILDWSWPLDTGGRKDVTFNIICKKCGWNIKQCEPCSPNVRFLPRQFGLTNTTVTVTDLLAHTNYTFEIDAVNGVSELSSPPRQFAAVSITTNQAAPSPVLTIKKDRTSRNSISLSWQEPEHPNGIILDYEVKYYEKQEQETSYTILRARGTNVTISSLKPDTIYVFQIRARTAAGYGTNSRKFEFETSPDSFSISGESSQVVMIAISAAVAIILLTVVIYVLIGRFCGYKSKHGADEKRLHFGNGHLKLPGLRTEVDPHTEEDPTQAVHEFAKELDATNISIDKVVGAGEFGEVCSGRLKLPSKKEISVAIMTLKVGYTEKQRRDFLGEASIMGQFDHPNIIRLEGVVTKSKPVMIVTEYMENGSLDSFLRKHDAQFTVIQLVGMLRGIASGMKYLSDMGYVHRDLAARNILINSNLVCKVSDFGLSRVLEDDPEAAYTTRGGKIPIRWTSPEAIAYRKFTSASDVWSYGIVLWEVMSYGERPYWEMSNQDVIKAVDEGYRLPPPMDCPAALYQLMLDCWQKDRNNRPKFEQIVSILDKLIRNPGSLKIITSAAARPSNLLLDQSNVDITTFRTTGDWLNGVWTAHCKEIFTGVEYSSCDTIAKISTDDMKKVGVTVVGPQKKIISSIKALETQSKNGPVPV
B2: Wt EphA3-GFP, P29320 Y596E; Y602E (protein)
chain: B1 chain with M633K

Biological target: T1, ADAM10 (immunoprecipitated with …)
Assay: co-immunoprecipitation (ADAM10 IP, EphA3 immunoblot, quantified)
Settings: chain shown with the change; ephrin-A5-treated EphA3-transfected cells; n = 2 experiments; parent: est. 1.1; read off a plot; scale: ratio of EphA3 co-IP/lysate, EphA3[2YE] as internal reference

response	Binder
0.42	B1
1	B2
